Data: patent US20180105572A1

Assays:
[1] = target: rh integrin α4β7 (R&D Systems #5397-A30) (human) (UniProt P13612); assay: α4β7-MAdCAM competition ELISA
[2] = target: α4β7 integrin on RPMI 8866 cells (UniProt P13612); assay: cell-based or functional assay

IC50 [1] [nM] | Cell Adhesion A4B7 (nM); RPMI 8866 cells adhering to plate-bound rh MAdCAM-1/Fc Chimera, MTT read-out [2] [nM] | Substance
> 1000 | – | C-N cyclic peptide SEQ ID NO: 483, cyclo<a-(N-Me-R)-S-D-T-L-e>
> 1000 | – | C-N cyclic peptide SEQ ID NO: 500, cyclo<r-(N-Me-R)-S-D-T-L-a>
> 1000 | – | C-N cyclic peptide SEQ ID NO: 489, cyclo<a-(N-Me-R)-S-D-T-L-l>
> 1000 | – | C-N cyclic peptide SEQ ID NO: 492, cyclo<a-(N-Me-R)-S-D-T-L-f>
– | > 1000 | C-N cyclic peptide SEQ ID NO: 484, cyclo<a-(N-Me-R)-S-D-T-L-e>
> 1000 | – | C-N cyclic peptide SEQ ID NO: 478, cyclo<a-(N-Me-R)-S-D-T-L-n>
– | > 10000 | C-N cyclic peptide SEQ ID NO: 495, cyclo<f-(N-Me-R)-S-D-T-L-a>
> 1000 | – | C-N cyclic peptide SEQ ID NO: 485, cyclo<k-(N-Me-R)-S-D-T-L-a>
> 1000 | – | C-N cyclic peptide SEQ ID NO: 482, cyclo<a-(N-Me-R)-S-D-T-L-e>
> 1000 | – | C-N cyclic peptide SEQ ID NO: 502, cyclo<A-(N-Me-R)-S-D-T-L-a>
> 1000 | – | C-N cyclic peptide SEQ ID NO: 496, cyclo<l-(N-Me-R)-S-D-T-L-a>
– | > 10000 | C-N cyclic peptide SEQ ID NO: 477, Cyclo(a-(N-Me-R)-S-D-T-L-a)
> 1000 | – | C-N cyclic peptide SEQ ID NO: 490, cyclo<a-(N-Me-R)-S-D-T-L-h>
> 1000 | – | C-N cyclic peptide SEQ ID NO: 480, cyclo<h-(N-Me-R)-S-D-T-L-a>
> 1000 | – | C-N cyclic peptide SEQ ID NO: 486, cyclo<k-(N-Me-R)-S-D-T-L-a>
> 1000 | – | C-N cyclic peptide SEQ ID NO: 504, cyclo<a-(N-Me-R)-S-D-T-L-A-a>
> 1000 | – | C-N cyclic peptide SEQ ID NO: 494, cyclo<f-(N-Me-R)-S-D-T-L-a>
– | > 10000 | C-N cyclic peptide SEQ ID NO: 479, cyclo<a-(N-Me-R)-S-D-T-L-n>
> 1000 | – | C-N cyclic peptide SEQ ID NO: 503, cyclo<A-(N-Me-R)-S-D-T-L-k>
> 1000 | – | C-N cyclic peptide SEQ ID NO: 498, cyclo<p-(N-Me-R)-S-D-T-L-a>
